According to PMC8324831, “A synthetic nanobody targeting RBD protects hamsters from SARS-CoV-2 infection” (Nature Communications, 2021):
Where two headings read alike, the source gives them in different places.

Assays:
[1] = molecular target: T1, SARS-CoV-2 S-RBD with Avi-tag and deca-His tag (residues 330-531) (SARS-CoV-2, UniProt P0DTC2, biotin on the Avi tag (BirA) where immobilised on streptavidin sensors or used in ELISA and FSEC)
[2] = molecular target: T1, SARS-CoV-2 S-RBD with Avi-tag and …; experiment: cell-based or functional assay
[3] = molecular target: T1, SARS-CoV-2 S-RBD with Avi-tag and …; experiment: BLI; Octet RED96; biotinylated RBD immobilised on SA sensor; sybodies as analytes; 30 °C; 0.005% Tween 20, 150 mM NaCl, 20 mM Tris HCl pH 8.0; fitted for 1:1 stoichiometry; conditions: both partners purified
[4] = molecular target: SARS-CoV-2 S-RBD with Avi-tag and deca-His tag (residues 330-531) (SARS-CoV-2, UniProt P0DTC2 330-531); experiment: cell-based or functional assay
[5] = molecular target: T1, SARS-CoV-2 S-RBD with Avi-tag and …; experiment: SEC; conditions: one partner purified
[6] = molecular target: SARS-CoV-2 S-RBD for crystallization (residues 330-531, Avi-tag and His-tag removed by 3C protease) (SARS-CoV-2, Wuhan-Hu-1 reference …, UniProt P0DTC2); experiment: crystal structure; conditions: both partners purified
[7] = molecular target: T1, SARS-CoV-2 S-RBD with Avi-tag and …; experiment: ELISA; Myc-tagged sybody from lysate captured by anti-Myc antibody on protein A-coated plate; 50 nM biotinylated RBD added; streptavidin-HRP; room temperature, TBST; conditions: one partner purified

B1: LR18 (VHH)
VHH: QVQLVESGGGSVQAGGSLRLSCAASGSISSITYLGWFRQAPGKEREGVAALVTENGHTYYADSVKGRFTVSLDNAKNTVYLQMNSLKPEDTALYYCAAATWGYEWPLYSNDYFYWGQGTQVTVS
binding result [1]: binds

B2: sybody MR3 (VHH)
VHH: QVQLVESGGGLVQAGGSLRLSCAASGFPVNAHFMYWYRQAPGKEREWVAAIYSYGRTLYADSVKGRFTISRDNAKNTVYLQMNSLKPEDTAVYYCNVKDYGAASWEYDYWGQGTQVTVS
IC50 of neutralisation of SARS-CoV-2 S pseudovirus on VeroE6-hACE2 cells (blocks RBD-ACE2) [2]: 0.42 µg/mL
Kd [3]: 1 nM
koff [3]: 0.00023 s⁻¹

B3: Fc-MR3 (Fc fusion)
chain: GSSSQVQLVESGGGLVQAGGSLRLSCAASGFPVNAHFMYWYRQAPGKEREWVAAIYSYGRTLYADSVKGRFTISRDNAKNTVYLQMNSLKPEDTAVYYCNVKDYGAASWEYDYWGQGTQVTVSERKCCVECPPCPAPPVAGPSVFLFPPKPKDTLMISRTPEVTCVVVDVSHEDPEVQFNWYVDGVEVHNAKTKPREEQFNSTFRVVSVLTVVHQDWLNGKEYKCKVSNKGLPAPIEKTISKTKGQPREPQVYTLPPSREEMTKNQVSLTCLVKGFYPSDIAVEWESNGQPENNYKTTPPMLDSDGSFFLYSKLTVDKSRWQQGNVFSCSVMHEALHNHYTQKSLSLSPGK
IC50 of neutralisation of SARS-CoV-2 S pseudovirus on VeroE6-hACE2 cells (blocks RBD-ACE2) [4]: 0.042 µg/mL

B4: sybody MR4 (VHH)
VHH: QVQLVESGGGLVQAGGSLRLSCAASGFPMYAWEMAWYRQAPGKEREWVAAIRSMGVHTHYSDSVKGRFTISRDNAKNTVYLQMNSLKPEDTAVYYCNVKDFGGHQAYYDYWGQGTQVTVS
binding result [5]: binds

B5: sybody LR1 (VHH)
VHH: QVQLVESGGGSVQAGGSLRLSCAASGSISSITYLGWFRQAPGKEREGVAALITDSGRTYYADSVKGRFTVSLDNAKNTVYLQMNSLKPEDTALYYCAAAEWGYEWPLYYASSWYWGQGTQVTVS
binding result [5]: binds

B6: sybody LR5 (VHH)
VHH: QVQLVESGGGSVQAGGSLRLSCAASGSISSITYLGWFRQAPGKEREGVAALITSNGRTYYADSVKGRFTVSLDNAKNTVYLQMNSLKPEDTALYYCAAATWGYHWPLGAWDYWYWGQGTQVTVS
binding result [5]: binds

B7: sybody SR4 (VHH)
VHH: QVQLVESGGGLVQAGGSLRLSCAASGFPVYSWNMWWYRQAPGKEREWVAAIESHGDSTRYADSVKGRFTISRDNAKNTVYLQMNSLKPEDTAVYYCYVWVGHTYYGQGTQVTVS
binding result [6]: binds
binding result [7]: binds

B8: sybody MR17 (VHH)
VHH: QVQLVESGGGLVQAGGSLRLSCAASGFPVEVWRMEWYRQAPGKEREGVAAIESYGHGTRYADSVKGRFTISRDNAKNTVYLQMNSLKPEDTAVYYCNVKDDGQLAYHYDYWGQGTQVTVS
Kd [3]: 83.7 nM
